In patent publication US20200216495A1 (ADRX, published 2020):
“And” between values parts separate entries of the source, which are not always exact repeats. Identical values can stand only once. Square brackets hold non-standard residues; d marks the D form. Ends that are not written are not given here.

Biological target: Tau40 P301L protein (human)
Experiment: cell-based or functional assay

Binder	IC50, Tau40 assay (ThT)
[dL][dK][dI][dR][dI][dH][dA][dH] [lkirihah]	6.41 µM
[dF][dH][dL][dE][dI][dR][dH][dW] [fhleirhw]	6.87 µM
[dF][dE][dL][dR][dI][dK][dH][dY] [felrikhy]	6.57 µM and 12 µM
[dL][dR][dI][dE][dI][dE][dW][dH] [lrieiewh]	5.89 µM and 9.68 µM
[dF][dH][dI][dE][dI][dR][dH][dF] [fhieirhf]	6.06 µM
[dL][dK][dV][dR][dW][dW] [lkvrww]	6.48 µM
[dF][dR][dL][dR][dI][dW][dW][dF] [frlriwwf]	6.85 µM and 10.8 µM
[dK][dL][dK][dL][dR][dW] [klklrw]	5.92 µM and 5.99 µM
[dK][dL][dK][dI][dK][dW] [klkikw]	6.87 µM
[dE][dK][dI][dR][dI][dH][dY] [ekirihy]	5.58 µM

More lines, now with the values ahead:

IC50, Tau40 assay (ThT)	Binder
6.46 µM	[dW][dR][dL][dL][dV][dR][dW][dW] [wrllvrww]
6.3 µM	[dY][dR][dI][dR][dL][dE][dH][dV] [yrirlehv]
5.62 µM	[dR][dL][dK][dW][dR][dW] [rlkwrw]
6.39 µM	[dW][dH][dV][dR][dL][dN][dH][dL] [whvrlnhl]
5.86 µM	[dW][dR][dL][dK][dH][dR][dW] [wrlkhrw]
6.53 µM and 7 µM	[dW][dR][dF][dH][dI][dH][dF][dY] [wrfhihfy]
6.86 µM	[dW][dR][dV][dH][dF][dE][dH][dW] [wrvhfehw]
6.63 µM	[dR][dI][dH][dY][dH][dL][dK][dI] [rihyhlki]
6.57 µM	[dW][dQ][dL][dQ][dV][dR][dW] [wqlqvrw]
5.99 µM and 7.56 µM	[dW][dR][dL][dW][dI][dH][dW][dW] [wrlwihww]
6.72 µM	[dV][dK][dV][dW]G[dR][dL][dW] (not fully specified (residue 5); printed as vkvwgrlw) [vkvwgrlw]
6.5 µM	[dY][dR][dI][dR][dI][dN][dH][dL] [yririnhl]
6.87 µM	[dR][dL][dR][dI][dH][dW] [rlrihw]
6.67 µM	[dW][dR][dL][dK][dV][dE][dW] [wrlkvew]
